Data taken from the supplement of paper PMC7877785.
± gives the uncertainty stated by the source.

Experiment: self-splicing fitness, log relative to wild type (ln ratio); higher = more splicing; Tetrahymena group I intron in knt gene, E. coli kanamycin selection, DiMSum; sequences stand for … in CUCUCU…GGAGGGAAAAGUUAUCAGGCAUGCACCUGGUAGCUAGUCUUUAAACCAAUAGAUUGCAUCGGUUUAAAAGGCAAGACCGUCAAAUUGCGGGAAAGGGGUCAACAGCCGUUCAGUACCAAGUCUCAGGGGAAACUUUGAGAUGGCCUUGCAAAGGGUAUGGUAAUAAGCUGACGGACAUGGUCCUAACCACGCAGCCAAGUCCUAAGUCAACAGAUCUUCUGUUGAUAUGGAUGCAGUUCACAGACUAAAUGUCGGUCGGGGAAGAUGUAUUCUUCUCAUAAGAUAUAGUCGGACCUCUCCUUAAUGGGAGCUAGCGGAUGAAGUGAUGCAACACUGGAGCCGCUGGGAACUAAUUUGUAUGCGAAAGUAUAUUGAUUAGUUUUGGAGUACUCGUGGUCG
Method in brief: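 Fitness was computed with DiMSum as the error-weighted combination of replicate fold changes, kanamycin versus none, each normalised to wild type. The library randomised all eight intron nucleotides of the P1ex region, with the intron placed in the knt kanamycin-resistance gene on pET-22b(+) in E. coli BL21(DE3). Six replicate transformations were grown overnight at 37°C or 30°C on LB agar with or without 25 μg/mL kanamycin, plus 100 μg/mL carbenicillin, 50 μM IPTG and 0.2% rhamnose. Pooled colonies were amplicon-sequenced on an Illumina HiSeq 2500.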

| Sequence | self-splicing fitness (ln) (30 °C) | self-splicing fitness (ln) (37 °C) |
| --- | --- | --- |
| AAUAAGCAAUAUUACGUUGC | -3.52 ± 0.19 | -2.53 ± 0.2 |
| AAUAAGCAAUAUUACGUUUA | -2.05 ± 0.084 | -1.3 ± 0.096 |
| AAUCAGCAAUAUUACGAAAU | -0.801 ± 0.066 | 0.368 ± 0.092 |
| AAUCAGCAAUAUUACGACAA | -0.758 ± 0.12 | 0.189 ± 0.14 |
| AAUCAGCAAUAUUACGAGUG | -0.769 ± 0.053 | -0.281 ± 0.08 |
| AAUCAGCAAUAUUACGAUCG | -0.0405 ± 0.063 | 0.448 ± 0.084 |
| AAUCAGCAAUAUUACGCCUU | 0.109 ± 0.082 | 0.0213 ± 0.1 |
| AAUCAGCAAUAUUACGCGCC | -0.953 ± 0.12 | -0.532 ± 0.13 |
| AAUCAGCAAUAUUACGCUCC | -1.54 ± 0.14 | -0.129 ± 0.11 |
| AAUCAGCAAUAUUACGCUUU | -0.193 ± 0.067 | 0.378 ± 0.1 |
| AAUCAGCAAUAUUACGGCGG | -1.05 ± 0.1 | 0.206 ± 0.14 |
| AAUCAGCAAUAUUACGGGUA | -0.368 ± 0.071 | 0.17 ± 0.081 |
| AAUCAGCAAUAUUACGGGUU | -2.48 ± 0.12 | -2.02 ± 0.13 |
| AAUCAGCAAUAUUACGGUGC | -0.892 ± 0.072 | -0.189 ± 0.082 |
| AAUCAGCAAUAUUACGGUGG | -1.14 ± 0.056 | -0.718 ± 0.076 |
| AAUCAGCAAUAUUACGUAUA | -0.574 ± 0.066 | 0.0946 ± 0.087 |
| AAUCAGCAAUAUUACGUAUU | -1.17 ± 0.053 | -0.697 ± 0.061 |
| AAUCAGCAAUAUUACGUGCU | -3.39 ± 0.17 | -2.56 ± 0.17 |
| AAUCAGCAAUAUUACGUUUG | -2.11 ± 0.092 | -1.94 ± 0.13 |
| AAUGAGCAAUAUUACGAAUU | -2.71 ± 0.28 | -2.3 ± 0.39 |
| AAUGAGCAAUAUUACGACCU | -0.757 ± 0.24 | -0.257 ± 0.41 |
| AAUGAGCAAUAUUACGACUU | -0.422 ± 0.091 | 0.263 ± 0.1 |
| AAUGAGCAAUAUUACGAGCG | -3.49 ± 0.38 | -1.56 ± 0.3 |
| AAUGAGCAAUAUUACGAGGA | -2.86 ± 0.36 | -2.08 ± 0.36 |
| AAUGAGCAAUAUUACGAUAC | -4 ± 0.33 |  |

| Sequence | self-splicing fitness (ln) (30 °C) | self-splicing fitness (ln) (37 °C) |
| --- | --- | --- |
| AAUGAGCAAUAUUACGAUUG | -1.99 ± 0.38 | -1.14 ± 0.26 |
| AAUGAGCAAUAUUACGCAAU | -2.49 ± 0.23 | -2.25 ± 0.25 |
| AAUGAGCAAUAUUACGCAUA | -2.52 ± 0.19 | -2.42 ± 0.24 |
| AAUGAGCAAUAUUACGCUGG | -3.22 ± 0.2 | -2.08 ± 0.25 |
| AAUGAGCAAUAUUACGGCGG | -4.11 ± 0.34 | -2.69 ± 0.29 |
| AAUGAGCAAUAUUACGGCGU | -1.43 ± 0.07 | -0.25 ± 0.097 |
| AAUGAGCAAUAUUACGGGAG | -2.87 ± 0.23 | -3.53 ± 0.42 |
| AAUGAGCAAUAUUACGGGUU | -2.36 ± 0.14 | -2.13 ± 0.2 |
| AAUGAGCAAUAUUACGUACC |  | -2.85 ± 0.27 |
| AAUGAGCAAUAUUACGUCAG | -1.81 ± 0.45 | -2.32 ± 0.42 |
| AAUGAGCAAUAUUACGUCAU | -2.26 ± 0.2 | -1.02 ± 0.18 |
| AAUGAGCAAUAUUACGUCGU | -2.77 ± 0.082 | -1.18 ± 0.086 |
| AAUGAGCAAUAUUACGUGCG | -2 ± 0.15 | -1.99 ± 0.3 |
| AAUGAGCAAUAUUACGUUGC | -4.6 ± 0.45 | -2.78 ± 0.29 |
| AAUUAGCAAUAUUACGAAUU | -2.7 ± 0.15 | -1.1 ± 0.13 |
| AAUUAGCAAUAUUACGAGUC |  | -1.9 ± 0.36 |
| AAUUAGCAAUAUUACGAUUG | -2.58 ± 0.2 | -1.14 ± 0.22 |
| AAUUAGCAAUAUUACGCAAC | -3 ± 0.4 | -1.93 ± 0.24 |
| AAUUAGCAAUAUUACGCAUA | -1.59 ± 0.15 | -2.07 ± 0.15 |
| AAUUAGCAAUAUUACGCCAU | -2.49 ± 0.19 | -1.04 ± 0.16 |
| AAUUAGCAAUAUUACGCGAC | -2.66 ± 0.21 | -1.61 ± 0.24 |
| AAUUAGCAAUAUUACGCGUC | -2.69 ± 0.16 | -1.1 ± 0.14 |
| AAUUAGCAAUAUUACGGCCG | -0.532 ± 0.18 | 0.571 ± 0.28 |
| AAUUAGCAAUAUUACGGCGU | -0.085 ± 0.076 | 0.168 ± 0.1 |
